± gives the standard deviation of the averaged measurements.
Tests used:
MCF7 = experiment: percentage of EdU-negative (G0-arrested) nuclei per well, 72 h; higher = more G0 arrest; conditions: reference: sequence is the full UniProt precursor, the tested protein was the secreted form or ectodomain
hTERT-HMEC = experiment: as above; conditions: reference: sequence is the full UniProt precursor, the tested protein was the secreted form or ectodomain
[1] = protein concentration 0.0225 µM
[2] = protein concentration 0.0105 µM
[3] = protein concentration 0.00828571 µM
[4] = protein concentration 0.0828571 µM
[5] = protein concentration 0.0328571 µM
[6] = protein concentration 0.328571 µM
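Further: secreted proteins added to cultured cells, EdU pulse at the end, nuclei found by Hoechst imaging, EdU status from nuclear versus surrounding ring intensity ratio, PBS as neutral control.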

Sequence	percentage of EdU-negative (MCF7; [1]) [%]	percentage of EdU-negative (MCF7; protein concentration 0.225 µM) [%]	percentage of EdU-negative (hTERT-HMEC; [1]) [%]	percentage of EdU-negative (hTERT-HMEC; protein concentration 0.225 µM) [%]	also measured
MSLVLLSLAALCRSAVPREPTVQCGSETGPSPEWMLQHDLIPGDLRDLRVEPVTTSVATGDYSILMNVSWVLRADASIRLLKATKICVTGKSNFQSYSCVRCNYTEAFQTQTRPSGGKWTFSYIGFPVELNTVYFIGAHNIPNANMNEDGPSMSVNFTSPGCLDHIMKYKKKCVKAGSLWDPNITACKKNEETVEVNFTTTPLGNRYMALIQHSTIIGFSQVFEPHQKKQTRASVVIPVTGDSEGATVQLTPYFPTCGSDCIRHKGTVVLCPQTGVPFPLDNNKSKPGGWLPLLLLSLLVATWVLVAGIYLMWRHERIKKTSFSTTTLLPPIKVLVVYPSEICFHHTICYFTEFLQNHCRSEVILEKWQKKKIAEMGPVQWLATQKKAADKVVFLLSNDVNSVCDGTCGKSEGSPSENSQDLFPLAFNLFCSDLRSQIHLHKYVVVYFREIDTKDDYNALSVCPKYHLMKDATAFCAELLHVKQQVSAGKRSQACHDGCCSL [Q9NRM6]	25.3 ± 1.3	26.76 ± 0.21	4.78 ± 0.46	5.29 ± 0.1	
MSLWKKTVYRSLCLALALLVAVTVFQRSLTPGQFLQEPPPPTLEPQKAQKPNGQLVNPNNFWKNPKDVAAPTPMASQGPQAWDVTTTNCSANINLTHQPWFQVLEPQFRQFLFYRHCRYFPMLLNHPEKCRGDVYLLVVVKSVITQHDRREAIRQTWGRERQSAGGGRGAVRTLFLLGTASKQEERTHYQQLLAYEDRLYGDILQWGFLDTFFNLTLKEIHFLKWLDIYCPHVPFIFKGDDDVFVNPTNLLEFLADRQPQENLFVGDVLQHARPIRRKDNKYYIPGALYGKASYPPYAGGGGFLMAGSLARRLHHACDTLELYPIDDVFLGMCLEVLGVQPTAHEGFKTFGISRNRNSRMNKEPCFFRAMLVVHKLLPPELLAMWGLVHSNLTCSRKLQVL [Q8NFL0]					percentage of EdU-negative (MCF7; [2]): 25.6 ± 1%; percentage of EdU-negative (MCF7; protein concentration 0.105 µM): 27.97 ± 0.1%; percentage of EdU-negative (hTERT-HMEC; [2]): 4.88 ± 0.47%; percentage of EdU-negative (hTERT-HMEC; protein concentration 0.105 µM): 6.5 ± 1.4%
MSLWQPLVLVLLVLGCCFAAPRQRQSTLVLFPGDLRTNLTDRQLAEEYLYRYGYTRVAEMRGESKSLGPALLLLQKQLSLPETGELDSATLKAMRTPRCGVPDLGRFQTFEGDLKWHHHNITYWIQNYSEDLPRAVIDDAFARAFALWSAVTPLTFTRVYSRDADIVIQFGVAEHGDGYPFDGKDGLLAHAFPPGPGIQGDAHFDDDELWSLGKGVVVPTRFGNADGAACHFPFIFEGRSYSACTTDGRSDGLPWCSTTANYDTDDRFGFCPSERLYTQDGNADGKPCQFPFIFQGQSYSACTTDGRSDGYRWCATTANYDRDKLFGFCPTRADSTVMGGNSAGELCVFPFTFLGKEYSTCTSEGRGDGRLWCATTSNFDSDKKWGFCPDQGYSLFLVAAHEFGHALGLDHSSVPEALMYPMYRFTEGPPLHKDDVNGIRHLYGPRPEPEPRPPTTTTPQPTAPPTVCPTGPPTVHPSERPTAGPTGPPSAGPTGPPTAGPSTATTVPLSPVDDACNVNIFDAIAEIGNQLYLFKDGKYWRFSEGRGSRPQGPFLIADKWPALPRKLDSVFEERLSKKLFFFSGRQVWVYTGASVLGPRRLDKLGLGADVAQVTGALRSGRGKMLLFSGRRLWRFDVKAQMVDPRSASEVDRMFPGVPLDTHDVFQYREKAYFCQDRFYWRVSSRSELNQVDQVGYVTYDILQCPED					percentage of EdU-negative (MCF7; [3]): 24.2 ± 1.4%; percentage of EdU-negative (MCF7; [4]): 24.7 ± 0.13%; percentage of EdU-negative (hTERT-HMEC; [3]): 4.71 ± 0.63%; percentage of EdU-negative (hTERT-HMEC; [4]): 6.64 ± 0.96%
MSMLVVFLLLWGVTWGPVTEAAIFYETQPSLWAESESLLKPLANVTLTCQAHLETPDFQLFKNGVAQEPVHLDSPAIKHQFLLTGDTQGRYRCRSGLSTGWTQLSKLLELTGPKSLPAPWLSMAPVSWITPGLKTTAVCRGVLRGVTFLLRREGDHEFLEVPEAQEDVEATFPVHQPGNYSCSYRTDGEGALSEPSATVTIEELAAPPPPVLMHHGESSQVLHPGNKVTLTCVAPLSGVDFQLRRGEKELLVPRSSTSPDRIFFHLNAVALGDGGHYTCRYRLHDNQNGWSGDSAPVELILSDETLPAPEFSPEPESGRALRLRCLAPLEGARFALVREDRGGRRVHRFQSPAGTEALFELHNISVADSANYSCVYVDLKPPFGGSAPSERLELHVDGPPPRPQLRATWSGAVLAGRDAVLRCEGPIPDVTFELLREGETKAVKTVRTPGAAANLELIFVGPQHAGNYRCRYRSWVPHTFESELSDPVELLVAES					percentage of EdU-negative (MCF7; [5]): 24.5 ± 4.7%; percentage of EdU-negative (MCF7; [6]): 27.1 ± 2.2%; percentage of EdU-negative (hTERT-HMEC; [5]): 5.27 ± 0.37%; percentage of EdU-negative (hTERT-HMEC; [6]): 10.2 ± 0.85%
MSMSPTVIILACLGFFLDQSVWAHVGGQDKPFCSAWPSAVVPQGGHVTLRCHYRRGFNIFTLYKKDGVPVPELYNRIFWNSFLISPVTPAHAGTYRCRGFHPHSPTEWSAPSNPLVIMVTGLYEKPSLTARPGPTVRAGENVTLSCSSQSSFDIYHLSREGEAHELRLPAVPSINGTFQADFPLGPATHGETYRCFGSFHGSPYEWSDPSDPLPVSVTGNPSSSWPSPTEPSFKTGIARHLHAVIRYSVAIILFTILPFFLLHRWCSKKKDAAVMNQEPAGHRTVNREDSDEQDPQEVTYAQLDHCIFTQRKITGPSQRSKRPSTDTSVCIELPNAEPRALSPAHEHHSQALMGSSRETTALSQTQLASSNVPAAGI	24.4 ± 3.2	25.68 ± 0.13	5.29 ± 1.2	4.83 ± 0.51	
MSNTQAERSIIGMIDMFHKYTRRDDKIEKPSLLTMMKENFPNFLSACDKKGTNYLADVFEKKDKNEDKKIDFSEFLSLLGDIATDYHKQSHGAAPCSGGSQ	23.5 ± 2.3	26.5 ± 2.3	5.43 ± 0.67	5.53 ± 0.45	
MSPHLTALLGLVLCLAQTIHTQEGALPRPSISAEPGTVISPGSHVTFMCRGPVGVQTFRLEREDRAKYKDSYNVFRLGPSESEARFHIDSVSEGNAGLYRCLYYKPPGWSEHSDFLELLVKESSGGPDSPDTEPGSSAGTVPGTEASGFDAP [Q6ISS4]	24.7 ± 0.63	27.9 ± 3.5	4.81 ± 0.34	6.43 ± 0.35	
MSPHPTALLGLVLCLAQTIHTQEEDLPRPSISAEPGTVIPLGSHVTFVCRGPVGVQTFRLERDSRSTYNDTEDVSQASPSESEARFRIDSVREGNAGLYRCIYYKPPKWSEQSDYLELLVKESSGGPDSPDTEPGSSAGPTQRPSDNSHNEHAPASQGLKAEHLYILIGVSVVFLFCLLLLVLFCLHRQNQIKQGPPRSKDEEQKPQQRPDLAVDVLERTADKATVNGLPEKDRETDTSALAAGSSQEVTYAQLDHWALTQRTARAVSPQSTKPMAESITYAAVARH [Q6GTX8]	23.2 ± 1.6	24.29 ± 0.027	5.38 ± 0.85	5.62 ± 0.45	

— the supplement of paper PMC11316812
